What was measured:
[1] = molecular target: human 4-1BB on CHO-K1 cells (human) (UniProt Q07011); test: FACS; FIG. 25D
[2] = molecular target: human 4-1BB on CHO-K1 cells (human) (UniProt Q07011); test: FACS; FIG. 25E
[3] = molecular target: human 4-1BB on CHO-K1 cells (human) (UniProt Q07011); test: FACS; FIG. 25A
[4] = molecular target: human 4-1BB on CHO-K1 cells (human) (UniProt Q07011); test: FACS; FIG. 25B
[5] = molecular target: human 4-1BB on CHO-K1 cells (human) (UniProt Q07011); test: FACS; FIG. 25C
[6] = molecular target: human 4-1BB on CHO-K1 cells (human) (UniProt Q07011); test: FACS; FIG. 11H
[7] = molecular target: human 4-1BB on CHO-K1 cells (human) (UniProt Q07011); test: FACS; FIG. 11I
[8] = molecular target: human 4-1BB on CHO-K1 cells (human) (UniProt Q07011); test: FACS; FIG. 11J
[9] = molecular target: human 4-1BB on CHO-K1 cells (human) (UniProt Q07011); test: FACS blocking of 4-1BBL; FIG. 14F
[10] = molecular target: human 4-1BB on CHO-K1 cells (human) (UniProt Q07011); test: FACS blocking of 4-1BBL; FIG. 14G
[11] = molecular target: human 4-1BB on CHO-K1 cells (human) (UniProt Q07011); test: FACS blocking of 4-1BBL; FIG. 14H

Chain of human 4-1BB on CHO-K1 cells (human) (Q07011 24-255): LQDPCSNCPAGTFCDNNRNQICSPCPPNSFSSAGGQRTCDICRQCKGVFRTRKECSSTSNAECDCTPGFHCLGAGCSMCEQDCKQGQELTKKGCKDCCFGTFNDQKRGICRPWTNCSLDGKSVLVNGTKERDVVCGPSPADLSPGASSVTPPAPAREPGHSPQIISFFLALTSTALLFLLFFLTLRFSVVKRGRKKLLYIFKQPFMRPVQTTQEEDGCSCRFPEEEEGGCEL

EC50 [1]: 0.653 nM
EC50 [2]: 0.235 nM
EC50 [3]: 1.01 nM
EC50 [4]: 0.347 nM
EC50 [5]: 0.519 nM
EC50 [6]: 0.683 nM
EC50 [7]: 0.712 nM
EC50 [8]: 0.486 nM
IC50 [9]: 1.27 nM
IC50 [10]: 0.447 nM
IC50 [11]: 0.232 nM
Substance: Urelumab

Source: patent US20230242658A1
